Results as given in patent publication EP4613859A1, “TLR SIGNALING INHIBITORY PEPTIDE AND COMPOSITION INCLUDING SAME FOR PREVENTION OR TREATMENT OF INFLAMMATORY DISEASES” (Korea Institute of Science and Technology, priority 2022, dated 2025).

Tests used:
[1] = molecular target: human MAL (human) (UniProt P58753); experiment: P3 phage display panning on plate-immobilised MAL, after round 4, NGS
[2] = molecular target: human MyD88 (human) (UniProt Q99836); experiment: P3 phage display panning on plate-immobilised MyD88, after round 4, NGS
[3] = molecular target: human MyD88 (human) (UniProt Q99836); experiment: P8 phage display panning on plate-immobilised MyD88, after round 4, NGS

Sequence of UniProt P58753 (P58753 79-221 limits assumed): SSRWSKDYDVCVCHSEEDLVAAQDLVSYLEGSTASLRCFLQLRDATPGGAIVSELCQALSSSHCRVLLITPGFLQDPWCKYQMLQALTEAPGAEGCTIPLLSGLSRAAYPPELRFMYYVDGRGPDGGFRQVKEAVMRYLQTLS
Sequence of UniProt Q99836 (Q99836 155-296 limits assumed): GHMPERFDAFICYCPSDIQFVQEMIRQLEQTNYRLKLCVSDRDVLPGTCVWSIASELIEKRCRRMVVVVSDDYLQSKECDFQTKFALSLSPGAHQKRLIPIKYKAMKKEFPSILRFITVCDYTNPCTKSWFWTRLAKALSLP

| Binder | NGS count [1] [count] | Population [1] [%] | NGS count [2] [count] | Population [2] [%] | NGS count [3] [count] | Population [3] [%] |
| --- | --- | --- | --- | --- | --- | --- |
| DHHLDLPRGKAIKPEILG | 2280 | 0.86 | 26700 | 7.78 | – | – |
| MFGGDTFHDFLDLISM | – | – | – | – | 1490 | 0.57 |
| PEKDNGGENAFINNIV | – | – | 2500 | 0.73 | – | – |
| HLLKEFDKKLITAFKD | – | – | 2400 | 0.7 | – | – |
| SELRVVDDGSVSPLEM | – | – | 4870 | 1.42 | – | – |
| YTALTNSGFHTFRDND | – | – | 17600 | 5.12 | – | – |
| TSHLHHALRLNKIETF | – | – | 2080 | 0.6 | – | – |
| LEANDSLFWDRLLYSL | – | – | – | – | 1460 | 0.56 |
| SSFREGLWRLLELSKK | 30000 | 11.3 | 79500 | 23.1 | – | – |
| GLSWGPYEWWMGLYDA | – | – | – | – | 1960 | 0.76 |
| SPQEQDGFWVRLIEAL | – | – | – | – | 1840 | 0.71 |
| SENYATSPWALDELVL | – | – | 5490 | 1.89 | – | – |
| AVDKETDKIQTPLKNA | – | – | 4790 | 1.39 | – | – |
| RKGDLISDELLIAIEE | – | – | 2450 | 0.71 | – | – |
| NELVHVWSSKANSLVG | 1840 | 0.69 | 8820 | 2.57 | – | – |
| GFLYQAFAREGFKIFM | 1760 | 0.66 | 2580 | 0.75 | – | – |
| FLSYRALEKRFGPIGQ | – | – | 3290 | 0.96 | – | – |
| YYLDPSHLRKQSGEFG | – | – | 2540 | 0.74 | – | – |
| PSEVRKQTGSLAKAFA | – | – | 2250 | 0.66 | – | – |
| DWVWEHFFPMEEKDQT | – | – | – | – | 1540 | 0.59 |
| LVAHEISKKMKIFATI | 1670 | 0.63 | 17500 | 5.08 | – | – |
| NGHESEIIKEIVDTIV | – | – | 4230 | 1.23 | – | – |
